We go through 120 sequences from the supplement of paper PMC10126150.

± gives the standard deviation of the averaged measurements.
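Also: ATP exposure 15 min at 22 °C before imaging.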

In this data set the test system is ATP. Kind of data set: switch fluorescence ratio, 500 uM ATP over buffer (Cy3 cluster intensity, sum of 5 cycles each) (fold (ratio)); higher = stronger signal-on switching upon ATP binding; sequences stand for … in TCGTCGGCAGCGTCAGATGTGTATAAGAGACAGTTTTTTTTTTTTTTTTTTTTTTTTT…TC. The conditions noted are these: aptamer strand: ATP DNA aptamer (quencher-CACCTGGGGGAGTATTGCGGAGGAAGG + anchor), 100 nM annealed; ATP concentration: 500 uM. The method, boiled down:
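Clusters with intensities outside 100-1000 RFU were excluded. The remaining Cy3-labelled switching-strand clusters on a modified Illumina MiSeq flow-cell had been annealed to 100 nM quencher-labelled ATP aptamer and imaged in selection buffer, then after 15 min with 500 uM ATP at 22 °C, for five cycles separated by NaOH stripping and re-annealing. The fluorescence ratio, averaged per switch-domain sequence, is each cluster's summed target-cycle Cy3 intensity over its summed buffer-cycle Cy3 intensity.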
TTGCTGTTTG: the switch fluorescence ratio worked out at 1 ± 0.034.

For CTTGGCATCT, the switch fluorescence ratio amounted to 1.01 ± 0.033. Under TTAGGAAA stands 0.984 ± 0.044; under TTCTCAGTTT, 1.15 ± 0.22; under AGTTATTTGC, 0.997 ± 0.024.

TTCCTCGTTA: the switch fluorescence ratio was 1.39 ± 0.029.

For the sequence TAATAAAATT, the switch fluorescence ratio worked out at 1.04 ± 0.083. For CTGCAACGGA the value was 1.13 ± 0.056; for TTTAAGACAC, 1.03 ± 0.022. Consider AAGGGTTAAG, for which the switch fluorescence ratio was 0.9975 ± 0.006.

Turning to CTGGGGGCAA, the switch fluorescence ratio was 3.2 ± 0.68. For AGATCTTCTT the value was 0.987 ± 0.015; for GAGAGTATGT, 0.998 ± 0.043; for CTTTTTGGGG, 0.981 ± 0.029. For CGTGTGGCCA the value was 1 ± 0.016. For the sequence TTGTAAATGA, the switch fluorescence ratio was 1.02 ± 0.015.

GATGAAATGT: the switch fluorescence ratio worked out at 0.994 ± 0.015. Under TGCCAAGGTT stands 1.02 ± 0.034. For TCGAGGGGAT the value was 1.01 ± 0.027; for ATCAGCAACG, 1.01 ± 0.026. On to GAGTATGAGA, for which the switch fluorescence ratio is 1.009 ± 0.01. For AGGATATGGA the value was 0.997 ± 0.022.

With GCGGCCTTAC, the switch fluorescence ratio stood at 2.42 ± 0.4. Under AACGGGCCAG stands 0.997 ± 0.028; under GTTTGGGGGC, 1.03 ± 0.043; under GATACGGGGA, 0.988 ± 0.029. Turning to GGGGTTAGGG, the switch fluorescence ratio came out at 1 ± 0.032. For TTTTAGATTG the value was 0.987 ± 0.028; for GGGGCAAGGA, 0.987 ± 0.023. Under GCCTTGTTCA stands 0.993 ± 0.022; under TTTTTTGATT, 1.01 ± 0.02; under CGTTAGTCGT, 0.981 ± 0.039. Under CCGGTTGTGG stands 1.01 ± 0.02; under TATGTGGACA, 0.9964 ± 0.0047. In the case of TATCGGTTAT, the switch fluorescence ratio came to 0.984 ± 0.013. For the sequence CAACCTGGGA, the switch fluorescence ratio was 1.022 ± 0.0017. For TCCACATATC the value was 1.5 ± 0.0073; for TTTATGGCGG, 1.01 ± 0.027. For CAAGTATTGT the value was 0.999 ± 0.025; for GCGTGGGGGT, 1.01 ± 0.012; for ATGGGACGTT, 0.983 ± 0.037. As for ATTGATGATA, the switch fluorescence ratio was 1.018 ± 0.0092. For GCAGGGAGGG the value was 1 ± 0.041.

Consider TATCCAACAT, for which the switch fluorescence ratio was 1.036 ± 0.00037. For TGAAGTATGA the value was 1.03 ± 0.045; for TTTGGGGCAG, 1.06 ± 0.078.

Regarding GAATGGGGGA, the switch fluorescence ratio turned out to be 1.02 ± 0.019. For CGCTAATTGG, the switch fluorescence ratio is 1.09 ± 0.014. For ATTAGGTTGA the value was 0.975 ± 0.0047; for CCAAAGGGGT, 1.06 ± 0.046. Under TAGCAGATCA stands 0.994 ± 0.024.

Take GTAATTTTTT: the switch fluorescence ratio is 1.02 ± 0.031.

With GGGCCTCGGT, the switch fluorescence ratio turned out to be 0.9914 ± 0.0087.

For CGGAGTGGGG, the switch fluorescence ratio is 1.01 ± 0.012. For GTGATGGGGT the value was 1.01 ± 0.038; for GGGGAAAGGA, 0.9896 ± 0.0085.

Consider AATGGTTGTG, for which the switch fluorescence ratio turned out to be 1 ± 0.022. For GGAGTACGG the value was 1.03 ± 0.028; for GGGGTTCGGC, 1.058 ± 0.0023; for GACGGAGGGG, 1.01 ± 0.027. Under GGGAAGGAGG stands 1.02 ± 0.013; under TTTTCCGTTC, 1.02 ± 0.021; under TTTTCCGCGC, 2.08 ± 0.47. As for GATACTGAAC, the switch fluorescence ratio turned out to be 1.3 ± 0.024. For ATCAGTGGTC the value was 0.936 ± 0.021.

In the case of GCGTTTTTTT, the switch fluorescence ratio turned out to be 0.98972 ± 0.0007. In the case of GTTTTTGTGG, the switch fluorescence ratio came to 0.992 ± 0.01. For TTCGAATTGT, the switch fluorescence ratio turned out to be 0.976 ± 0.037. In the case of AAGTTACGT, the switch fluorescence ratio is 1.06 ± 0.025. For GGGGATAGGC the value was 1.01 ± 0.023. CCATAGAGAA: the switch fluorescence ratio was 1.02 ± 0.043. Consider AAAGATATAA, for which the switch fluorescence ratio turned out to be 1.03 ± 0.036. In the case of TATAAGGAGT, the switch fluorescence ratio came to 1.01 ± 0.044. For TGTTCTAGGG the value was 1.01 ± 0.013; for AAAGAGTCCT, 1.01 ± 0.029. Under CGTGATCCCC stands 1.17 ± 0.057; under TCACCAGATT, 1.017 ± 0.008. Under ACCTCGTTTC stands 1.02 ± 0.018; under ACGATCGGGC, 1.06 ± 0.05. Consider CATATGATTT, for which the switch fluorescence ratio came to 0.993 ± 0.019.

Consider CCTCGTAGGT, for which the switch fluorescence ratio was determined as 1.07 ± 0.024. For TTAAACGTTA the value was 1.32 ± 0.44; for TGGCGATAAT, 1.05 ± 0.031. Under AGGGCAAGTG stands 0.996 ± 0.034. Turning to CATTGAAGTG, the switch fluorescence ratio came out at 0.986 ± 0.053. Under TGCTTACTTT stands 1.33 ± 0.58; under AAGGTACCGT, 1.05 ± 0.055; under AGGTAGGTTT, 0.99 ± 0.017.

As for ATAATATGTG, the switch fluorescence ratio worked out at 0.997 ± 0.029.

For the sequence TTAGGCCTTT, the switch fluorescence ratio stood at 0.972 ± 0.048. Under TCATTCCTTT stands 1.008 ± 0.0063; under GCATGCGGCT, 1.03 ± 0.1. For GGTGGAGCTA the value was 1.03 ± 0.015; for CTCATCTAAT, 0.9821 ± 0.0081; for TGAGTAGGGG, 0.994 ± 0.017. Under AATGTAAGGT stands 1.012 ± 0.006; under ATCAATTTCT, 0.974 ± 0.014; under GGGTATCAGG, 0.965 ± 0.016.

On to TCGTAACAGG, for which the switch fluorescence ratio came to 1.01 ± 0.034.

For the sequence TCAATTTTGC, the switch fluorescence ratio turned out to be 1.02 ± 0.034. For TAATTTGCAG the value was 0.9812 ± 0.0076; for ATGTGTAGGG, 0.9711 ± 0.0014; for AATATGAGGG, 1.01 ± 0.042. Take TACAGTAGGA: the switch fluorescence ratio stood at 1.06 ± 0.064.

Regarding TTGGACATGC, the switch fluorescence ratio was 1.06 ± 0.14. Regarding GGAGGGAACT, the switch fluorescence ratio came out at 1.2 ± 0.34. Under GGGCCTAGCG stands 0.978 ± 0.019. Under GATGTTTGCG stands 0.994 ± 0.034; under TGAAAACACC, 1.13 ± 0.15. Under TGCCTATTTC stands 1.02 ± 0.017. Take CATTTTGGTC: the switch fluorescence ratio worked out at 1.002 ± 0.0039.

For TAATTAATGC, the switch fluorescence ratio worked out at 1.02 ± 0.037. Under GGGGGGGAG stands 1.02 ± 0.021. Under ATTGGACTAG stands 0.989 ± 0.07; under ACGGCATTTC, 1.28 ± 0.047; under CGGTTCATCC, 1.02 ± 0.014.

With AGGCTTATCT, the switch fluorescence ratio came out at 0.989 ± 0.025. For GGGGTGATCC the value was 1.01 ± 0.012; for AGTACAGGGT, 0.99 ± 0.032.

In the case of TTATTGATCC, the switch fluorescence ratio worked out at 0.9978 ± 0.0019.
